Measurements reported in EP4722237A1, “METHOD FOR DETECTING BIOLOGICAL ACTIVITY OF INSULIN OR ANALOGUE THEREOF AND KIT” (Sunshine Lake Pharma Co., Ltd., priority 2023, dated 2024).

Key:
[1] = biological target: T1, insulin receptor B (Homo sapiens, UniProt P06213); assay: Luciferase reporter gene detection method (HEK293/IRB-STAT5b-03-Luciferase cells, luminescence signal); type: cell-based; conditions: after stimulation of cells
T1 construct: expressed in transfected cells; host or cells: HEK293 (HEK293-IRB monoclonal line; HEK293/IRB-STAT5b-03-Luciferase 001#clone)
Protocol: ① 0.6 mM insulin glargine reference solution: An appropriate amount of insulin glargine reference was weighed, dissolved completely in 0.01 M HCL and diluted to 0.6 mM, and mixed thoroughly.
② 0.6 mM Insulin Glargine Test Solution: An appropriate amount of insulin glargine injection solution was taken.
③ 15000 nM Reference/Test Solution Stock Solution: 780 µl of 0.01 M hydrochloric acid solution was added to 20 µl of a 0.6 mM insulin glargine reference/test solution and mixed thoroughly.
④ […] control/test solution: 780 µl of DMEM medium containing 1% FBS (fetal bovine serum) was added to 20 µl of a 15000 nM reference/test solution.
⑤ Serial dilutions of control/test compounds: Dilutions were performed in a 96-well plate according to the method shown in Table 1.
The culture flask was taken out of the incubator, the culture medium was discarded, and 2 ml of DPBS (sterile saline) buffer was added and gently washed twice. 1 ml of DPBS and 1 ml of trypsin solution were slowly added along the cell-free side of the flask to digest the cells for approximately 2 min. […]
After 15 h of incubation, the 384-well plate was removed from the incubator and allowed to stand at room temperature for approximately 5 min. […] After 3 minutes, the luminescence signal was detected in the LUM mode on a multi-functional microplate reader. […]

[2] = biological target: insulin IR β receptor (Homo sapiens, UniProt P06213); assay: HTRF kit method (insulin receptor phosphorylation); type: cell-based; conditions: specificity comparison, Figure 6
Excerpt: Currently, commercial kits such as HTRF (homogeneous time-resolved fluorescence) and AlphaElisa are commonly used to assess insulin activity. These assays measure insulin IR β receptor phosphorylation levels to characterize insulin's cellular bioactivity. On the one hand, commercial test kits such as HTRF and AlphaElisa are expensive and have high detection costs; on the other hand, technical means such as HTRF and AlphaElisa are relatively complicated to operate, usually requiring the addition of insulin drugs to co-incubate with cells, then adding lysis buffer for incubation and lysis, and then adding the corresponding phosphorylated antibody solution for incubation, and finally testing. Under normal circumstances, the sample volume of each step of these kits needs to be controlled to 4~8 µl, which requires a high level of operational skills of the analyst.
Two different analysts used the same batch of test products (prepared in 6 parallel portions) and reference products to perform tests using the HTRF kit method on different dates.

dose-effect relationship [1]: no obvious dose-effect relationship
response in HTRF kit assay [2]: no response
Substance: liraglutide
